Consider 28 molecules from publication PMC314469, “Protein Interaction Networks by Proteome Peptide Scanning” (PLoS Biology, 2004).

Test [1] has as its target T1, amphyphisin SH3 (AMPH_HUMAN), P49418.
T1 chain: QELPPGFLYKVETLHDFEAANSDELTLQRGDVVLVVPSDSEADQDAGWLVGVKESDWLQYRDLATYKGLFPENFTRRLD
Briefly: SPOT array.

The target of test [2] is endophilin SH3 (SH3G2_HUMAN), Q99962. Briefly: SPOT array.

Regarding QSLKIRRPHDYQPL [P26368 222-235], the normalised SPOT signal, Boehringer light units (BLU); mean over the file's lines of this peptide was 37.5 in test [1] and 93.1 in test [2].
Take AASSPARPPGLQRS [Q9BQ89 173-187]: the normalised SPOT signal, Boehringer light units (BLU); mean over the file's lines of this peptide in test [1] is 136; in test [2] it was 3950.
Regarding ATDSPRRPSRSTGG [Q9H6U6 6-19], the normalised SPOT signal, Boehringer light units (BLU); mean over the file's lines of this peptide was 11300 in test [1] and 472 in test [2].
Taken in the same sequence, the figures for QSTNPKRPLSSANQ [P35670 228-241] were 35.1 and 94.2.
Regarding QSISLRRPRLASQS [Q9UBH6 665-678], the normalised SPOT signal, Boehringer light units (BLU); mean over the file's lines of this peptide in test [1] was determined as 56.1; in test [2] it was 208.
For the molecule QVYVLKRPHVDEFL [O15194 206-219], the normalised SPOT signal, Boehringer light units (BLU); mean over the file's lines of this peptide was determined as 19.5 in test [1] and 58.8 in test [2].
With QRKNLRRPPSIKGW [Q9NYL5 22-35], the values for the normalised SPOT signal, Boehringer light units (BLU); mean over the file's lines of this peptide in test [1] and in test [2] were 25.3 and 57.6, respectively.
For QVIHPPRPPKVLGL [P39194 572-585], in that order: 117 and 423.
As to QYRSLPRPAKSSSM [Q9H9S9 177-190], the results for the normalised SPOT signal, Boehringer light units (BLU); mean over the file's lines of this peptide in test [1] and in test [2] were 220 and 764, respectively.
Taken in the same sequence, the figures for QVDPPERPPSPPSD [Q9H4B3 193-207] were 92.2 and 326.
For QVMVIKRPGRKRKA [P51608 244-257], in that order: 1620 and 240.
Taken in the same sequence, the figures for QYGFPRRPPPRGSQ [Q9BQH3 166-180] were 3010 and 2120.
On to QVYVLKRPYVDEFL [O14595 137-150], for which the normalised SPOT signal, Boehringer light units (BLU); mean over the file's lines of this peptide in test [1] was 6.6; in test [2], 28.4.
In the case of RAASLRRPRRAASR [Q8WYB4 11-24], the normalised SPOT signal, Boehringer light units (BLU); mean over the file's lines of this peptide is 80.1 in test [1] and 72.5 in test [2].
Taken in the same sequence, the figures for QRQRPPRPPPRGTP [Q8WTU5 20-34] were 8800 and 11000.
For ATDLPKKPPPPEVT [Q96QH2 123-137], in that order: 68.1 and 46.8.
For QVDPPERPPPPPSD [Q9H292 194-208], in that order: 43.2 and 275.
As for QYNFLRRPQRMPVS [Q9BZC7 2011-2024], the normalised SPOT signal, Boehringer light units (BLU); mean over the file's lines of this peptide in test [1] came to 1220; in test [2], 764.
Consider QVIGPHRPPELHDR [P20813 329-343], for which the normalised SPOT signal, Boehringer light units (BLU); mean over the file's lines of this peptide stood at 66.4 in test [1] and 82.5 in test [2].
As to QVVGPHRPPALDDR [Q14097 329-343], the normalised SPOT signal, Boehringer light units (BLU); mean over the file's lines of this peptide is 60.7 in test [1] and 43.1 in test [2].
For QVIRPPRPPKVLGL [P39193 571-585], in that order: 8910 and 14600.
For QVEKLRRPEGASNE [O75381 360-373], in that order: 40.3 and 64.7.
With QVFLPPRPPKVLGL [Q9Y3F0 251-265], the normalised SPOT signal, Boehringer light units (BLU); mean over the file's lines of this peptide was 1150 in test [1] and 2710 in test [2].
In the case of QSSPPQRPPAPASP [BAC05814 18-32], the figures for the normalised SPOT signal, Boehringer light units (BLU); mean over the file's lines of this peptide in test [1] and in test [2] were 49.9 and 4000, respectively.
Taken in the same sequence, the figures for QVILPPRPPKVLGL [P39188 470-484] were 936 and 5000.
Turning to QVKDIRRPERRHSD [Q9UI45 1886-1899], the values for the normalised SPOT signal, Boehringer light units (BLU); mean over the file's lines of this peptide in test [1] and in test [2] were 534 and 123, respectively.
For the molecule QVNHLKRPVSGVGD [Q92610 1091-1104], the normalised SPOT signal, Boehringer light units (BLU); mean over the file's lines of this peptide in test [1] came to 42.5; in test [2], 0.
For RADIPKRPSYVAPL [Q9Y2F3 1400-1413], in that order: 47.6 and 1460.
